Experimental findings from patent US20130097729A1 are described below.

The target of this assay is whole pea aphid BBMV proteins. As to the kind of experiment: pull-down with whole pea aphid BBMV, anti-GFP western blot, ImageJ band intensities. A general note: A western blot detects proteins with antibodies after separation by electrophoresis.

GBP3.1(R8A)EGFP (peptide) gave a fold increase in BBMV binding efficiency against GBP3.1-EGFP of 5 fold.
